In patent US20260078171A1 (INVIVYD, published 2026):
Changes are numbered by the printed parent chain.

Key:
[1] = molecular target: T1, WT SARS-CoV-2 spike S1 subunit (SARS-CoV-2, UniProt P0DTC2 16-685); assay: bio-layer interferometry (BLI, Octet), monovalent Fab affinity
[2] = molecular target: SARS-CoV spike S1 subunit (SARS-CoV, UniProt P59594 14-667); assay: BLI (Octet), Fab, monovalent
[3] = molecular target: T1, WT SARS-CoV-2 spike S1 subunit; assay: BLI (Octet), Fab, monovalent

B1: ADI-58125 (Fab, V domains shown)
VH: EVQLVESGGGLVKPGGSLRLSCAASGFTFSSYYMNWVRQAPGKGLEWVSSISEDGYSTYYPDSLKGRFTISRDSAKNSLYLQMNSLRADDTAVYYCARDFSGHTAWAGTGFEYWGQGTLVTVSS
VL: QSVLTQPPSVSGAPGQRITISCTGSSSNIGAGYDVHWYQQLPGTAPKLLIYGSSSRNSGVPDRFSGSKSGTSASLAITGLQAEDEADYYCQSYDSSLSVLYTFGTGTKVTVLG
In the case of B1, the Kd [1] is reported as 0.6 nM.

B2: VYD222 Fab (Fab, V domains shown)
VH: B1 VH with S30G, Y33E, S101G, H103D, E112T
VL: QSVLTQPPSVSGAPGQRITISCTGSSSNIGAGYDVHWYQQLPGTAPKLLIYGSSSRNYGVPDRFSGSKSGTSASLAITGLQAEDEADYYCQSYDSDLGVLYTFGTGTKVTVL
B2 showed a Kd [2] of 0.478 nM and a Kd [3] of 2.14 nM.
